Target: Tectus dentatus superoxide dismutase 1 (Tectus dentatus)
Test: SEC

Substance: Tectus dentatus superoxide dismutase 1 (enzyme)
- stoichiometry N: 2
